# According to publication PMC6582412:
# Columns and labels:
# [1] = system: LrAgo (Limnothrix rosea IAM M-220); assay: competition
# [2] = system: LrAgo (Limnothrix rosea IAM M-220); assay: double-filter binding; details: 5'-phosphate
Sequence,Kd ([1]; 5'-hydroxyl),Kd [2],Kd ([1]; 5'-phosphate)
GTTAGACTTTAAGTCAAT [18 nt 5'-OH guide DNA (G-guide)],0.0456 nM,–,–
GTTAGACTTTAAGTCAAT [18 nt 5'-P guide DNA (G-guide)],–,0.0348 nM,0.0333 nM
